Measurements as given in PMC9912922, “The LH–DH module of bacterial replicative helicases is the common binding site for DciA and other helicase loaders” (Acta Crystallographica. Section D, Structural Biology, 2023).

B2: VcDnaB, replicative helicase DnaB from Vibrio cholerae (enzyme)
chain: MADPRTDNRNRKIPDAQVDAIKVPPHSLEAEQSVIGGLLLDNERWDTVSEHVMTQDFYSRPHRLIFDGVKSILEAGKPLDLITLSEYLEQREQLEDVGGFAYLADLAKNTPSAANINAYAEIVAERALVRNLIGVANEIADAGYDPQGRNAEDLLDLAESKVFAIAEARTSENEGPKNVDSILERTLERIELLYKTPQDGVTGVNTGFTDLNKKTAGLQGSDLIIVAARPSMGKTTFAMNLCENAAMEQDKPVLIFSLEMPAEQIMMRMLASLSRVDQTKIRTGQLDDEDWARISSTMGILMEKKNMYIDDSSGLTPTEVRSRARRIAREHGGLSLIMVDYLQLMRVPALTDNRTLEIAEISRSLKALAKELNVPVVALSQLNRSLEQRADKRPVNSDLRESGSIEQDADLIMFIYRDEVYHPDSPLKGTAEIIIGKQRNGPIGSVRLTFQGHYSRFDNYAGPAFDDE
notes: DnaB replicative helicase, Vibrio cholerae; seen as full-length protein without proteolysis on SDS-PAGE of the crystals; NTD 22-175 and CTD 200-461 of PDB 6t66 were the search models

Assays:
[1] = target: B2; experiment: intrinsic fluorescence variation along a thermal ramp (Tycho NT.6 nano-DSF); 20 µM of each protein in 50 mM HEPES pH 7.5, 150 mM NaCl, 1 mM ATP; 350/330 nm ratio, 35 to 95°C, compared with the ratio predicted in the absence of interaction; three to five replicates; conditions: both partners purified
[2] = target: the molecule itself; experiment: crystal structure; VcDnaB (0.115 mM monomer) pre-incubated with 2 mM ADP and 5 mM MgCl2, VcDciA added to 0.138 mM; crystals at 18°C in 0.1 M sodium acetate pH 4.8-5.6, 0.7-0.9 M potassium/sodium tartrate; 2.9 Å

B1: EcDnaC, helicase loader DnaC from Escherichia coli (natural protein)
chain: MKNVGDLMQRLQKMMPAHIKPAFKTGEELLAWQKEQGAIRSAALERENRAMKMQRTFNRSGIRPLHQNCSFENYRVECEGQMNALSKARQYVEEFDGNIASFIFSGKPGTGKNHLAAAICNELLLRGKSVLIITVADIMSAMKDTFRNSGTSEEQLLNDLSNVDLLVIDEIGVQTESKYEKVIINQIVDRRSSSKRPTGMLTNSNMEEMTKLLGERVMDRMRLGNSLWVIFNWDSYRSRVTGKEY
notes: DnaC helicase loader, Escherichia coli; source: overexpressed in E. coli, purified as described in Marsin et al. (2021)
binding result [1]: binds

B2
binding result [2]: binds
